# Assay results as given in patent US20190345446A1 (BROAD INSTITUTE, published 2019).
# T1: STAT4 (mouse, endogenous) (mouse, UniProt P42228 1-749)
# T1 construct: Endogenous intracellular protein
# T1 sequence (looked up): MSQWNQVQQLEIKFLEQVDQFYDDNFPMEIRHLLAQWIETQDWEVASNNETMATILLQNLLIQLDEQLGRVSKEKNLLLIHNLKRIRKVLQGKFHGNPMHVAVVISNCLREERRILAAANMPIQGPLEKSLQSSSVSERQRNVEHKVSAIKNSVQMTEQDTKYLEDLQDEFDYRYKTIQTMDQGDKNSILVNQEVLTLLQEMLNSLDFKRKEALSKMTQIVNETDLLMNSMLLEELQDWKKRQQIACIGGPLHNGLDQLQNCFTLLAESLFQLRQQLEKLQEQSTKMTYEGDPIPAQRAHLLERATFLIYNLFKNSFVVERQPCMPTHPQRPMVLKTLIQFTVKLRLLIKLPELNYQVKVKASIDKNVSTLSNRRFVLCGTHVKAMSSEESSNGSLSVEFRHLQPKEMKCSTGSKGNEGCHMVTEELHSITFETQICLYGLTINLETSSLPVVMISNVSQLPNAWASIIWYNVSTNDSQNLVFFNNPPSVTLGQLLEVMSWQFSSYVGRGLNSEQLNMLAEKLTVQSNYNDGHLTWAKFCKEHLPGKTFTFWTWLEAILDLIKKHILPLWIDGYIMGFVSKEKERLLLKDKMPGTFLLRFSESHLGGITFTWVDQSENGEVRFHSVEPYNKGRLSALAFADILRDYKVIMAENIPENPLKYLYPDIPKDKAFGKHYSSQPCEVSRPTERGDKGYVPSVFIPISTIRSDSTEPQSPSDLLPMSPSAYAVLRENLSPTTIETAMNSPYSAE
# Legend:
# [1] = biological target: T2, STAT3 (mouse, endogenous) (mouse, UniProt P42227 2-770); test: co-immunoprecipitation with anti-Fas antibody and Protein G beads from EL4 mouse T cell line, Western blot
# T2 construct: Endogenous intracellular protein
# T2 sequence (P42227 2-770 limits assumed): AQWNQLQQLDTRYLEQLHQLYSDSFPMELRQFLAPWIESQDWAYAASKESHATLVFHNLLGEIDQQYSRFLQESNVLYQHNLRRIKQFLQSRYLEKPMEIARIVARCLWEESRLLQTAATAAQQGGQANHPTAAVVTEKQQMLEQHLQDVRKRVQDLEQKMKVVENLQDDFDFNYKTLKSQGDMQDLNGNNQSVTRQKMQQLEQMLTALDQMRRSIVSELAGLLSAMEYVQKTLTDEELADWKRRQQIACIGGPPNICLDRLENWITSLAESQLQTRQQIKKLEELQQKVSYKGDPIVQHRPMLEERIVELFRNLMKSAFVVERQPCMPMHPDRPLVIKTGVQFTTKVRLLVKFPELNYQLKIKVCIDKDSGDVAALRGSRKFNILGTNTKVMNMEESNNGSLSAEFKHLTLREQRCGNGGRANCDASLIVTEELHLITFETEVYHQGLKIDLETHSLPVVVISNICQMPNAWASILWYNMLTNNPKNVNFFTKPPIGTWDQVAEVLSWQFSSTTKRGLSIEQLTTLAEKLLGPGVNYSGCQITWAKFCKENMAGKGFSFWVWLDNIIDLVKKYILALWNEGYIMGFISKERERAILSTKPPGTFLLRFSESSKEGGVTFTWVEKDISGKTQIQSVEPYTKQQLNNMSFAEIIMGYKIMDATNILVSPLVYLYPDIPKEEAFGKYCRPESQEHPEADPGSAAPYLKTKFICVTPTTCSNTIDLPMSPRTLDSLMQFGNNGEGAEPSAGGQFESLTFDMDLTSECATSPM
# Description: (§1) For DISC assembly, 1*10⁸ EL4 cells or 5-7*10⁷ MACS sorted primary mouse CD4 cells were stimulated for 15 minutes with either biotinylated anti-Fas antibody (Jo2, 2.5 μg/ml) and streptavidin ([…], Thermo Scientific) or with multimerized recombinant human Fas ligand (aa 139-281) fused at the N-terminus to mouse ACRP30headless (aa 18-111) and a FLAG-tag (MegaFasL, Adipogen) at a final concentration of 100 ng/ml as indicated in the figure legends. MegaFasL was dissolved in H₂O that was used as vehicle. For immunoprecipitation (IP) experiments, cells were then washed twice with ice-cold PBS, lysed in ice-cold IP buffer containing 30 mM Tris HCL, 1% Triton-X100, 150 mM NaCl, 2 mM EDTA, 10% glycerol, 1 mM PMSF, phosphatase inhibitors (HALT, Thermo Scientific) and protease inhibitors (Roche). Immuoprecipitation was performed immediately after lysis using protein G magnetic Dynabeads (Life Technologies) with three consecutive washes with IP buffer. For phosphorylation studies, sorted naïve T cells were stimulated with the cytokines as indicated, then washed with PBS, and either lysed in IP buffer or cytoplasmic and nuclear fractions were extracted using NE-PER reagents (Thermo Scientific) following the manufacturer's protocol. […]
# [2] = biological target: T1, STAT4 (mouse, endogenous); test: as above
# Description: as §1
binder,measurement,setting,value
"Fas (mouse death receptor Fas, endogenous in EL4 cells and primary mouse CD4+ T cells) (receptor, UniProt P25446 22-327, looked up, whole, on cells; Endogenous protein; also called Fas receptor; CD95) QGTNSISESLKLRRRVRETDKNCSEGLYQGGPFCCQPCQPGKKKVEDCKMNGGTPTCAPCTEGKEYMDKNHYADKCRRCTLCDEEHGLEVETNCTLTQNTKCKCKPDFYCDSPGCEHCVRCASCEHGTLEPCTATSNTNCRKQSPRNRLWLLTILVLLIPLVFIYRKYRKRKCWKRRQDDPESRTSSRETIPMNASNLSLSKYIPRIAEDMTIQEAKKFARENNIKEGKIDEIMHDSIQDTAEQKVQLLLCWYQSHGKSDAYQDLIKGLKKAECRRTLDKFQDMVQKDLGKSTPDTGNENEGQCLE",binding result,[1],no binding
same,binding result,[2],no binding
